For 1 substance, Kd results are on record in publication PMC11286877.

pKd: −log10 of the molar value.

This experiment deals with OLFM4 recombinant protein (SPR) (UniProt Q3UZZ4). The experiment in a line: SPR. For orientation: In SPR one partner is held on a chip, and binding of the other changes the refractive index at the surface.
UniProt Q3UZZ4, sequence (Q3UZZ4 19-505): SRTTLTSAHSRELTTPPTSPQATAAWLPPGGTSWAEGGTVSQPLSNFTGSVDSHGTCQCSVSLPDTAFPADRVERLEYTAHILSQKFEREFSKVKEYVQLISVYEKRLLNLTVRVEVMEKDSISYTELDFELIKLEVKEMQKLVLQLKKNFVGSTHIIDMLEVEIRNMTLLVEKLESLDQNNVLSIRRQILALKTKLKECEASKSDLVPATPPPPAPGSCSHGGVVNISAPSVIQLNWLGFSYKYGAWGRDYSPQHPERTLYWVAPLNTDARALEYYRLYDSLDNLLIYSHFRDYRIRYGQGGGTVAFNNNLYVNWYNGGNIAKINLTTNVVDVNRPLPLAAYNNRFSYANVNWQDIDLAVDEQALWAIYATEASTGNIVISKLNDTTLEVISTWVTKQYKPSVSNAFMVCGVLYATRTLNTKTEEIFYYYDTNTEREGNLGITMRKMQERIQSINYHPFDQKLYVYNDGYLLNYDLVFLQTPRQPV

On to “MTDH protein, extracellular domain (SPR) (from UniProt Q80WJ7 1-48) (domain or fragment)”, for which the negative-log Kd (pKd) (in general, the Kd on a negative log10 scale, so that one unit is a factor of ten) is 10.66.
